Target: the molecule itself
Assay: crystal structure

B1: yeast mitochondrial threonyl-tRNA synthetase MST1 (enzyme, S. cerevisiae)
chain: QDLFMTDPLSPGSMFFLPNGAKIFNKLIEFMKLQQKFKFGFNEVVTPLIYKKTLWEKSGHWENYADDMFKVETTDEEKEEYGLKPMNCPGHCLIFGKKDRSYNELPLRFSDFSPLHRNEASGALSGLTRLRKFHQDDGHIFCTPSQVKSEIFNSLKLIDIVYNKIFPFVKGGSGAESNYFINFSTRPDHFIGDLKVWNHAEQVLKEILEESGKPWKLNPGDGAFYGPKLDIMVTDHLRKTHQVATIQLDFQLPERFDLKFKDQDNSYKRPIMIHRATFGSIERFMALLIDSNEGRWPFWLNPYQAVIIPVNTKNVQQLDMCTALQKKLRNELEADDMEPVPLNDWHFNVDLDIRNEPVGYRIKSAILKNYSYLIIVGDEEVQLQKYNIRERDNRKSFEKLTMSQIWEKFIELEKNYK
With B1 the “stoichiometry N” value was 2.
